Data: doi:10.1101/2024.12.27.630498 (bioRxiv, 2024)

Molecular target: the molecule itself
Assay: cryo-EM structure

B1: Arabidopsis thaliana AKT1 (Arabidopsis K+ transporter 1), construct for the structure of AKT1 alone (natural protein)
chain: not shown
B1 was tested, and the “stoichiometry N” value was 4.
